Reference: the DeepSol protein solubility set

Assay: soluble on expression in E. coli; label from the status in PepcDB or PDB records

| Sequence | soluble on expression in E. coli |
| --- | --- |
| MDIYVCTVCGYEYDPAKGDPDSGIKPGTKFEDLPDDWACPVCGASKDAFEKQ | soluble |
| MAHHHHHHMIVVSSPKATNYDEWEKQLKARRIIMNCPDEMVVKAMCAWMKRGLEPDKQVECWNMVEKHMEKVGPIPRHIFDEDDYIDRMSAVDDALLSIKPTDVGEHFTLRGSKLWYSEVPSHKLLKVVREITEKGAEVFLNASISADIGFRIADRLEKEMATKDFLLLILRWRDALVSHALEKLGLRAFMYGELVIAIVEGLKELPPPSPSKPRSSVLKVNYQGYPTRAVGLKELQGGVTRIPMEYRVLYIPKVENFPLVDGFFFVDSPRKTLVGLQMTTASAHHKITSTVNLFNERMAEYFNGWEELSRDLSWEMIYIQHALSKEISKWQRCGPVNTENLSDTEKEIVAFWDGRVHQYQFVLTPDFVSKIREMRIQQSWGKGIGKKVREIIGEQSAFRFGKYIGKYFNDFYVCVCAYGV | not soluble |
| MATDQKRGLLIVFEGLDRSGKSTQAKRLVESINKKSTESGDASSSPSAVLQAFPDRSSSIGKLIDQYLRKEIDMDEHALHLLFSADRFSKNQMIRDNIAKGIDVICDRYCYSGVAYSLAKGLPEQWVRSSDVGLPKPDAVLFFDVSPEVAAQRGGFGEERLETATIQQKVAAVMPTLRDDAYWKTVNADGDLDSVEKNVFRIYENLDREKPFESLEKI | not soluble |
| MKTVILIGALGKMGQAALTGLSKHKVITAGRSGNVDHLVDITNENSIRALYEKVGHFDAVVNTVGFCEYATFAEMTEAQWMTTVMSKMMGQINLVRIGQEYIADKGSFTLISGILNVKPIPCAIADATTSGAIDTFVKCVAYEMQRGTRINVVNPTVLTEAWDVYGDMMPGFEPVPSTLVGKAFERSVDGFINGEVLFVDALEHHHHHH | soluble |
| MAHHHHHHMSLPPRGPSSPPAKCPQECVASSCVSLPITPPCIARRVLPLFPPPGWHMYDAYRNCFQYRPDVQRKLVKAVQRERHLRHLAAPHAGDAATSSAEVSAAVLRKEVMEMDSTCCCCALDAAHLFATPEDMPTPPLPLSRCELHEVLLALSPRWQSYPWRLCFDTASDGFSLSSLYRCMEAVDAKQSQVKTVAFGLFFVHSREDAALTNAQTASPVDSLSASSTSPSYALWPPTAGAPHSFCEAHHSSSRRYGAAHGALQHSVLGCFTPEVPCLGRHAANIYFGSTDTFVFRLDQLSCAPSRGAWMATDVEKKQSSQRAQQQEQQQQHGKAAEPHTCAPATSTRAVGAAPAYGYAKLALADDDIAGVPVPMPSRVTIEHAGDSKHAVDKSMVHSSPLLPPSEVPPLLNPSPLRAAVVSSSNAAAMSSVHGAPDIVVPSPRGRWHRLLRPVQPARVVPHAPLLEKFTWCGNMHNRKFIVCNPHFFAIGGGQSGAALYVDEALQYGTSSTWCETFNAPCLFGPRMGSADVSSVPSLVQSYMSGNDSPSGGPARPTSGLPHVEFAISRVVWFSVTEDKRTLRMMSAADASLPSAEAHRCGCGRFSCASASHTTTLDPMSTEKSTAPSPPPASTFLHQCDLLPFAAPM | not soluble |
| MGSDKIHHHHHHMKYTVIICDDNLNHASNLALKIGIAAMVDSGDNPDTEIDLEIGKIAQNALDVIEYLKENPISGGIYFLDIELSQEKNAMNGIDLAEQVKQLDPRAQIIFVTAYNEYMEMTFERRIGAVDYINKSNPNLQNRLNETLQDTVRRISKENYSKKMTFSYRLGRIIKNINIDDIYYISTTKAPHKLKLVKNDGTAEFAGDIKSVDKQNEFLTKVSQSYLVNPKNIVQINLKKKEITLSNGDAIKFSRRFTHVMKDMINTYNLKQNNYQI | not soluble |
| SNAMSVIKIEKALKLDKVIFVDVRTEGEYEEDHILNAINMPLFKNNEHNEVGTIYKMQGKHEAIQKGFDYVSYKLKDIYLQAAELALNYDNIVIYCARGGMRSGSIVNLLSSLGVNVYQLEGGYKAYRNFVLEY | soluble |
| MGSDKIHHHHHHMMYQTYDLYSRSAEMMNGFISVNQQLLTHPFNPFSNTLLGKSINAALDSAYHHTKVYDKQPFDIKTTIIDGETVNIDEQVILAKPFCNLIHFKQDTKVQQPKLFLVAPLSGHHATLLKATIERLILDHDVYITDWLDAKNVPLSEGNFDFDDYVTYLIEFMKEIGEDTHVLAVCQPAVQALIATAVLAKDKDAATPKSLTIIAGPIDTSINPNELNKYASSKDLSWFENNVIMTVPERFPGAGRKVYPGFIQLTSFMAMNIENHVKKHTDYFGHVFHGKEDKQESHRDFYDEYLAVLDLNSEFYLETLDRVFINQDLANGKMTYHGELVDLSAITDTALHTIEGKNDDICSLGQTQAAQALCSGIPEQNKLDQVFDGVGHFGTFSGSAFRERIAPSIAEFIQKHK | not soluble |
| MKKVYLFKLKFNTPYGLRVGGPKEDISTLTPLKIGQHYVIPSSSWKGIFRRTTEVLITNPNHFRGHEGEDVTDDGSLDELLEAKGLENKNDENVRKERKRFIAMWNCPVERLYGSEYFASAVTFSDTLIDAEINQRTHVVIDRKTRKSEEKHLYSEQIVNVNSVRVKVIVRDRIDDWIKTLKFLSEFGTFVGGGKSRGIGYAVLDWKESEYAEVDGLTRKIMFKPLDELKL | soluble |
| EGQEKFKDLTYIAASVCNTEHAFITLLNKDNLVFLSSFKPPLAEITRDLSFCEITIQSDTVHEVQDARVHERFSNNPYVIGEPYLRYYCGAPLIDENGYKLGALCVLDTNPRTLTENQKKSLVLLAKQV | not soluble |
| MTATKQTAQVTAVADGTVVTPKGFQAAGVHAGLRYSKNDLGVILCDVPASAAAVYTQSHFQAAPLKVTQASLAVEQKLQAVIVNSACANACTGEQGLKDAYEMRELCAKQFGLALHHVAVASTGVIGEYLPMEKIRAGIEKLVPGATMADAEAFQTAILTTDTVMKRACYQTTVDGKTVTVGGAAKGSGMIHPNMATMLAFITTDANVSSPVLHAALRSITDVSFNQITVDGDTSTNDMVVVMASGLAGNDELTPDHPDWENFYEALRKTCEDLAKQIAKDGEGATKLIEVRVRGAKTDEEAKKIAKQIVGSNLVKTAVYGADANWGRIIGAIGYSDAEVNPDNVDVAIGPIVMLKGSEPQPFSEEEATAYLQQETVVIEVDLHLGDGFGVAWGCDLTYDYVKINASYRT | not soluble |
| MSLKYIVVTGGVMSGLGKGITAASIGRLFVDMGYRVIPIKIDPYINIDAGTMNPFQHGEVYVLKDGTEVDLDLGHYERFIGEEVTGDHNITTGKIYKRVIEKERKGDYLGQTVQIIPHVTDEIKSWIRRVAKESNAEICLVEIGGTVGDIEGMPFLEAIRQMHNEEKEEDFALVHVTLVPLDAGGEQKTKPTQHSVKELRELGLHPDVIVGRCSERLKPATKKKIALFCDVPEEAVISNEDAEDIYEVPLIFKREKLDEYLMRKLNLRAKESRKEWEEMVKRMKTLYEEASIAIVGKYVDVRDAYLSIKEALKHGGIEAGCKVNIVWVDSEDLENVDDFTLDVDGILVPGGFGARGAEGKIRAIEYARENGVPFLGICFGFQLAVIEFARNVVGFSEANSTELDENTPHPVIDLLPEQKGIDEMGGTMRLGDIEVTIKPGTIAHKLYGSEKVVERHRHRYEVNPEYIEKIESKGLVFSAYSDGGRRMEIAELPDHPFFFATQFHPEFKSRPYRPSPPFVGFVRAALKYRREEEIEGHHHHHH | soluble |
| FEHVLVFAPTGSGKTRSIGIPNLFNYPYSVVCNDVKLTLFRTTSGYRERVLGHRCFCWAPADENRITHCYNPLSLISEDKIQRLTDIQRIAHILMPDNKKSDPIWQQASRKLFKVAVLYLLDTPERPTTLGEINRLVKQAGFDDWLASVLEETNHLDPEFYRNGYSYLNNHEKTRSSILETFSGYFELFDDPTIDAATARSDFDLRQLRREKITIYIGFTDDDMERLSPLLTLFWQQLISVMIKNIPDPVDEPYPLLCLIDEFSSLGRIERLRRSLKLLREYRVRCVLIMQYIAQTYEQYTHDEAKAFTNIKTKIAFATEDIFDAEYVSKLLGTRTVKVSAGSTSTQTQGYSESKSYNYQAIPLLRPDEVMRLPEDQTLIMRTGHAPVKAEQMVWY | not soluble |
| KYRSVFDIIGPVMIGPSSSHTAGAARIGRVARSLFGREPERIIVSFYGSFAETYKGHGTDVAIIGGLLDFDTFDERIKTAIQIAEAKGIDIEFRVEDAVPVHPNTAKITISDEKGELELTGISIGGGKIEITELNGFELRLSGNHPAILVVHNDKFGTIAGVANVLAKFSINVGHMEVARKDIGQLALMTIEVDQNIDDHILDELSKLPN | not soluble |
| MNTISILSTTDLPAAWQIEQRAHAFPWSEKTFFGNQGERYLNLKLTADDRMAAFAITQVVLDEATLFNIAVDPDFQRRGLGRMLLEHLIDELETRGVVTLWLEVRASNAAAIALYESLGFNEATIRRNYYPTAQGHEDAIIMALPISMKLHHHHHHHHHH | soluble |
